The series in a line: yeast display, Sf9 membrane polyspecificity reagent, FACS + sequencing; frameworks hold sequencing errors. The method in brief:
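Sorting gates, low and high (top ~1%), were placed on anti-HA fluorescence to track expression and on streptavidin fluorescence to track reagent binding. A clone's polyreactivity label is taken from the gate it came out of. The reagent was 10% biotinylated, detergent-solubilized Sf9 membrane, applied for 1 hour at 4 °C to galactose-induced yeast display cells.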
Turning to “QVQLVESGGGLVQAGGSLRLSCAASGRIFTGYTMGWYRQAPGKERELVAGITRGGSTYYADSVKGRFTISRDNAKNTVYLQMNSLKPEDTAVYYCAADYPRFWYHSWYVPAYYYWGQGTQVTVSS”, the “polyreactivity (PSR sort gate)” value is reported as “high polyreactivity”. As for “QVQLVESGGGLVQAGGSLRLSCAASGRIFTHNAIGWYRQAPGKERELVAGISYGGGSTYYADSVKGRFTISRDNAKITVYLQMNSLKPEDTAVYYCIAYIYDTYYWGQGTQVTVSS”, the “polyreactivity (PSR sort gate)” value is recorded as “low polyreactivity”.

“QVQLVESGGGLVQAGGSLRLSCAASGRIFTHNAMGWYRQAPGKERELVAAISSIGGSTYYADSVKGRFTISRDNAKNTVYLQMNSLKPEDTAVYYCAVKRPLYGDSEYYYWGQGTQVTVSS”: the “polyreactivity (PSR sort gate)” value is given as “low polyreactivity”. To “QVQLVESGGGLVQAGGSLRLSCAASGRIFTHNTMGWYRQAPGKERELVAAISSSGGSTYYADSVKGRFTISRDNAKNTVYLQMNSLKPDDTAVYYCNTLIKGRWIVVGYGYPGYDYWGQGTQVTVSS” belongs “high polyreactivity”; to “QVQLVESGGGLVQAGGSLRLSCAASGRIFTIYAMGWSRQAPGKERELVAAITVSTGSTYYADSVKGRFTISRDNAKNTVYLQMKSLKPEDTAVYYCAKRGQSYTYRRYDYWGQGTQVTVSS”, “low polyreactivity”; to “QVQLVESGGGLVQAGGSLRLSCAASGRIFTIYAMGWYRQAPGKERELVAGIRGGGSTNYADSVKGRFTISRDNAKNTVYLLMNSLKPEDTAVYYCAAEVRRYVIVPYYYWGQGTQVTVSS”, “high polyreactivity”. To “QVQLVESGGGLVQAGGSLRLSCAASGRIFTIYAMGWYRQAPGKERELVATISSNVGSTYYADSVKGRFTISRDNAKNTVYLQMNSLKPEDTAVYYCAATRRAGFTTAKFDYWGQGTQVTVSS” belongs “high polyreactivity”; to “QVQLVESGGGLVQAGGSLRLSCAASGRIFTKNTKGWYRQAPGKERELVAAIRSRAGSTYYADSVKGRFTISRDNAKNTVYLQMNSLKPEDTAVYYCAVPWFRSVDFDYWGQGTQVTVSS”, “low polyreactivity”.

Turning to “QVQLVESGGGLVQAGGSLRLSCAASGRIFTKYAMGWYRQAPGKERELVAAISSRGGSTYYADSVKGRFTISRDNAKNTVYLQMNSLKPEDTAVYYCAAGYLPRYYYTPQFDGDYWGQGTQVTVSS”, the “polyreactivity (PSR sort gate)” value is listed as “high polyreactivity”. Next, “QVQLVESGGGLVQAGGSLRLSCAASGRIFTKYAMGWYRQAPGKERELVAGINWRDGRTYYADSVKGRFTLSRDNAKNTVYLQMISLKPVDTAVYYCAGVSIFGRRWMYYWGQGTQVTVSS”: “high polyreactivity”; “QVQLVESGGGLVQAGGSLRLSCAASGRIFTPYAMGWYRQAPGKERELVAGISSSGGSTYYADSVKGRFTISRDNAKNTVYLQMNSLKPEDTAVYFCNKRYRGTPRSYDYWGQGTQVTVSS”: “high polyreactivity”. In the case of “QVQLVESGGGLVQAGGSLRLSCAASGRIFTRNAMGLYRQAPGKERELVAAISWRGGSTYYADSVKGRFTISRDNAKNTVYLQMNSLKPEDTAVYYCAAQPWFGRAARYRTTYYYWGQGTQVTVSS”, the “polyreactivity (PSR sort gate)” value is recorded as “high polyreactivity”.

On to “QVQLVESGGGLVQAGGSLRLSCAASGRIFTRNVMGWYRQAPGKERELVAAITTNGGSTYYADSVKGRFTISRDNAKNTVYLQMNSLKPEDTAVYYCAKRTVHYTWVYYWGQGTQVTVSS”, for which the “polyreactivity (PSR sort gate)” value is on record as “high polyreactivity”. Next, “QVQLVESGGGLVQAGGSLRLSCAASGRIFTRYAMGWYRPSPGKERELVAAISRNGGGTYYAESVKGRFTISRDNAKNTVYLQMNSLKPEDTAVYYCNAESTFVWGSYVRYDYWGQGTQVTVSS”: “low polyreactivity”; “QVQLVESGGGLVQAGGSLRLSCAASGRIFTRYAMGWYRQAPGKERELVAAINSGGSTKYADSVKGRFTISRDNAKHTVYLQMNSLKPEDTAVYYCNACYWWYGYDYWGQGTQVTVSS”: “high polyreactivity”. On to “QVQLVESGGGLVQAGGSLRLSCAASGRIFTRYAMGWYRQAPGKERELVATISGSGSTNYADSVKGRFTISRDNAKNTVYLQMNSLKPEDTAVYYCNRRSRREYDYWGQGTQVTVSS”, for which the “polyreactivity (PSR sort gate)” value was “low polyreactivity”. Next, “QVQLVESGGGLVQAGGSLRLSCAASGRIFTRYAMGWYRQAPGTERELVAVITRSGGSTYYADSVKGRFTISRDNAKNTVYLQMNSLKPEDTAVYYCAAKYYGEMYYWGQGTQVTVSS”: “low polyreactivity”; “QVQLVESGGGLVQAGGSLRLSCAASGRIFTRYAMGWYRQATGKERELVAAISSGGGNTYYADSVKGRFTISRDNAKNTVYLQMNSLKPEDTAVYYCAALRSWRKTGGAQRYWYDYWGQGTQVTVSS”: “high polyreactivity”; “QVQLVESGGGLVQAGGSLRLSCAASGRIFTSNAMGWYRQAPGKERELVAAISKSGGRTYYADSVKGRFTISRDNAKNTVYLQMNSLKPEDTAVYYCAKDNYWGQGTQVTVSS”: “high polyreactivity”. For “QVQLVESGGGLVQAGGSLRLSCAASGRIFTSNAMGWYRQAPGKERELVAAISSSGTRTYYADSVKGRFTISRDNAKNTVYLQMNSHKPEDTAVYYCASGAPSLKYEYWGQGTQVTVSS”, the “polyreactivity (PSR sort gate)” value was “high polyreactivity”. Take “QVQLVESGGGLVQAGGSLRLSCAASGRIFTSNTMAWYRQAPGKERELVAAITSSGGSMYYADSVKGRFTLSRDNAKNTVYLQIISLKPEDTAVYYFAGDTIGYHYWYDYWGQGTQVTVSS”: the “polyreactivity (PSR sort gate)” value is reported as “low polyreactivity”.

Take “QVQLVESGGGLVQAGGSLRLSCAASGRIFTSYAMGWSRQAPGKERELVATISSADGTKYADSVKGRFTISRDNAKNTVYLQMNSLKPEDTAVYYCNAYVWSWNDYWGQGTQVTVSS”: the “polyreactivity (PSR sort gate)” value is listed as “low polyreactivity”.

On to “QVQLVESGGGLVQAGGSLRLSCAASGRIFTSYAMGWYRQAPGKERELVAAISRRGDSTYYADSVKGRFTISRDNAKNTVYLQMNSLKPEDTAVYYCNARSSRIWDYYGFDYWGQGTQVTVSS”, for which the “polyreactivity (PSR sort gate)” value is given as “high polyreactivity”. Next, “QVQLVESGGGLVQAGGSLRLSCAASGRIFTSYAMGWYRQAPGKERELVAAITASGGRTYYADSVKGRFTISRDNAKNTVYLQMNCLKPEDTAVYYCAKLLSFQGDYWGQGTQVTVSS”: “high polyreactivity”; “QVQLVESGGGLVQAGGSLRLSCAASGRIFTSYTMGWYRQAPGKERELVAAIDWSGGTTYYADSVKGRFTISRDNAKNTVYLQMNSLKPEDTAVYYCAALYVKVGYYTYEYWGQGTQVTVSS”: “low polyreactivity”; “QVQLVESGGGLVQAGGSLRLSCAASGRIFTTYAMGWYRPAPGKERELVAAISQNGGSTYYADSVKGRFTISRDNAKNTVFLQMNSLKPEDTAVYYCNAGPAGYYDYDYWGQGTLVTVSS”: “low polyreactivity”. On to “QVQLVESGGGLVQAGGSLRLSCAASGRIFTTYAMGWYRQAPGKERELVAAISRSGGSTYYADSVKGRFTISRDNAKNTVYLQMNSLKPEDTAVYYCAAVPTSNSFLSSFYYWGQGTQVTVSS”, for which the “polyreactivity (PSR sort gate)” value is “high polyreactivity”. Regarding “QVQLVESGGGLVQAGGSLRLSCAASGRIFTTYAMGWYRQAPGKERELVAAISRSGGSTYYADSVKGRFTISRDNAKNTVYLQMNSLKTEDTAVYYCAAVPTSNSFRSSFYYWGQGTQVTVSS”, the “polyreactivity (PSR sort gate)” value is recorded as “high polyreactivity”. Next, “QVQLVESGGGLVQAGGSLRLSCAASGRIFTTYAMGWYRQAPGKERELVARISSGGTTYYADSVQGRFTISRDNAKNTVYLQMNSLKPEDTAVYYCNVRAVTPTRSRPFRYDYWGQGTQVTVSS”: “high polyreactivity”; “QVQLVESGGGLVQAGGSLRLSCAASGRIFTTYAMGWYRQAPGKERELVASITTTDTRTYADSVKGRFTISRDNAKNTVYLQMNSLKPEDTAVYNCAKDRLNKGRYYRAASDYWGQGTQVTVSS”: “low polyreactivity”.

The values are drawn from the nanobody polyreactivity screen of Harvey et al. (2022).
